# Measurements as given in the supplement of paper PMC10567573.
# ± gives the standard deviation.
# Assay: protein stability index of a GFP-peptide fusion (GPS, HEK-293T) (PSI 1-6); higher = more stable
# Conditions: c terminus: a fixed tail appended
# 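Note: 24-mer peptide tiles fused after GFP, lentivirally expressed, FACS-sorted into six equal bins by GFP/DsRed ratio, decoded by Illumina sequencing, PSI is the read-weighted mean bin number.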
Sequence,protein stability index (treatment: DMSO),"protein stability index (treatment: MLN4924 1 uM, 8 h)"
KLIQKKLLDKTCDQVMEFSWSALW [ZER1],2.41 ± 0.41,2.35 ± 0.2
KLLLFLSTELQASQILQNKKHKNS [FAM98B],2.98 ± 0.75,2.5 ± 1.1
KLRRQVIQVVLNGMESYQEVTVQR [ZER1],2 ± 0.19,2.28 ± 0.57
KLSARDHQKLEREARICRLLKHSN [CAMK2B],3.16 ± 0.47,3.52 ± 0.17
KMEEDIKEEEEKDHNEAMKPEEPP [PCMTD1],5.57 ± 0.15,5.58 ± 0.31
KMGSYYINRTFFFDVHPPLGKMLI [POMT2],2.95 ± 0.75,3 ± 0.46
KNATRETTSTLKAWLNEHRKNPYP [IRX6],3.14 ± 0.23,3.37 ± 0.33
KNGKKWEILNFNQYYEACRKAAKS [ACSBG2],2.49 ± 0.21,2.62 ± 0.57
KPQDSSQPSDRLMTEKQQEEAEWE [CEP70],5.59 ± 0.4,5.45 ± 0.46
KPVVNVSYRPAYDQGGPVEILPFL [DUSP5],2.62 ± 0.14,2.66 ± 0.39
KPYTCSVCGKSFSRTTCLFLHLRT [ZNF8],2.54 ± 0.39,2.89 ± 0.7
KQEMGTYLRFIVSRMKERAIDLNK [ZMYND11],2.9 ± 0.73,2.71 ± 0.69
KQFHNEVLKAHNEYRQKHGVPPLK [GLIPR2],3.79 ± 0.19,3.72 ± 0.17
KRITASEALKHPWICQRSTVASMM [CAMK2D],2.61 ± 0.05,2.67 ± 0.27
KRLKHKDDSVMKATQQARKRNFIS [C22orf31],4.11 ± 0.27,4.19 ± 0.23
KRPARLHTKPSQAPAVEVAPAGAS [NOP53],4.77 ± 0.42,4.96 ± 0.19
KRQAVNKAVANMQGEMDRKCKQVK [ZMYND11],4.6 ± 0.68,4.71 ± 0.45
KRSSRRVQRHNSFSPNSPQFNVSG [NECAB1],4.12 ± 0.19,4.27 ± 0.13
KSEGLSGRVLRKLPFLAHALYVQA [TRIP13],2.3 ± 0.58,2.13 ± 0.42
KSKPDRKRAESDSRKSSIPNNKEI [PTPRD],5.329 ± 0.046,5.46 ± 0.16
KTKKLYIDSRARRNLGSINTELQD [SEC22B],3.87 ± 0.22,4.08 ± 0.21
KVASSDLVNMGISVVSYTLKDIHD [FLOT1],2.34 ± 0.17,2.37 ± 0.29

Sequence,protein stability index (treatment: DMSO),"protein stability index (treatment: MLN4924 1 uM, 8 h)"
KWMERYLRDKTVMIIVAISPKYKQ [TRAF3IP2],2.65 ± 0.97,2.44 ± 0.34
KYEHELALRQTVEADVNGLRRVLD [KRT16],3.98 ± 0.15,4.09 ± 0.15
KYSLPWTTLDEFPLTRLGQLKACT [KCNG1],2.42 ± 0.25,2.61 ± 0.34
LAATTSMAYAKLMLTVMTKYQANI [FANCE],2.92 ± 0.32,3.26 ± 0.72
LAGSESLPVETLGPASRMDPESER [PBXIP1],5.2 ± 0.18,5.21 ± 0.21
LATQEPTDNQVRLRKRKEIREDRD [DLC1],5.41 ± 0.24,5.39 ± 0.16
LAVRSLRRVGGSRILLRMTLGREV [NLN],2.73 ± 0.68,2.37 ± 0.55
LDAMNYHLMPFRQHCRQSLASRIR [KLHL14],2.48 ± 0.46,2.2 ± 0.24
LDGHTISDLSRSSRGELIPISPST [MYBL2],4.14 ± 0.13,4.33 ± 0.3
LDSNGAGEKSENNSSNSDIVHVEK [BCL2L13],5.57 ± 0.22,5.6 ± 0.13
LDVWLSGGNDLCVWNRKLDLLCKT [WDR41],2.28 ± 0.35,2.19 ± 0.31
LEHGSIYIPSSYVDSHHEYPAMTF [ESR2],2.19 ± 0.18,2.06 ± 0.56
LEQRGTHAVVGVATALAPLQTDHY [SPSB2],3.6 ± 0.31,3.65 ± 0.15
LEYLYTANVTLSLDTVEEVLSVSK [KLHL14],2.41 ± 0.66,1.96 ± 0.36
LFEDIVAREYYSEADASHCIQQIL [CAMK2A],2.36 ± 0.069,2.62 ± 0.35
LFFVPCIFLYARPNSTFPIDKSMT [OR4A15],3.15 ± 0.51,3.43 ± 1.4
LFLMECEESPNGSEGACEKEKQSR [RHOBTB1],4.69 ± 0.44,4.83 ± 0.17
LFSIAPLIYGSMEMFPAAQQLYRH [JAGN1],2.55 ± 0.41,2.6 ± 0.57
LFVLLSVVCVLLNLAGFILGCQGA [FAM189A2],3.15 ± 0.38,3.25 ± 0.61
LGACVAPGGNLIVELARYLVDVRQ [DNAAF3],2.57 ± 0.44,2.12 ± 0.2
LGFRAFSGSGNRLDGKKKGVEPSP [UFD1],4.25 ± 0.46,3.94 ± 0.29
LGLSLTNGLALGPDLNILEDSAES [PSD2],4.56 ± 0.15,4.78 ± 0.31
